Experimental data from IntAct's records for PubMed 23142979.

Molecular target: DAXX, Q9UER7-1
Sequence (Q9UER7 whole entry): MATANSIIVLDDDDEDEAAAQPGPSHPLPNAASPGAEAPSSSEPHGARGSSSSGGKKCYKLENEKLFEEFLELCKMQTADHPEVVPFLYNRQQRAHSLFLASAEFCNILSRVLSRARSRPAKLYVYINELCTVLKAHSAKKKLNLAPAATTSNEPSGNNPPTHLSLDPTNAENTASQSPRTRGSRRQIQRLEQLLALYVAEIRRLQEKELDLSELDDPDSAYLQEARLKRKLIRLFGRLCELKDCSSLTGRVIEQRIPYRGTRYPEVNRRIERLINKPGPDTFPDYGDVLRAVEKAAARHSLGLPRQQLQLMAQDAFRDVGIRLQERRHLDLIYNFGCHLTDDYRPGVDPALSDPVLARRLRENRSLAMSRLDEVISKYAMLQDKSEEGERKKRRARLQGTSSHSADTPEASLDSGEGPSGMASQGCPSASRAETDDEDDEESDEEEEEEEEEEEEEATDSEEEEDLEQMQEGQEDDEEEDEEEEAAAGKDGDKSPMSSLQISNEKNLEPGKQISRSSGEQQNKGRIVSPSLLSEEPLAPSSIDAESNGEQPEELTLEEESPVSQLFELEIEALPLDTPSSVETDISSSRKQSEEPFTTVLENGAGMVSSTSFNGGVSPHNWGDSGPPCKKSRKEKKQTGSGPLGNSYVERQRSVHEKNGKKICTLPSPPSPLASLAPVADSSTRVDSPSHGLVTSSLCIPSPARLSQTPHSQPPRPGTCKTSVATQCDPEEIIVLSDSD

## Histone H3.1 (Homo sapiens) (from UniProt P68431) S88A
  effect of a mutation on the interaction: increasing interaction strength
